“Also recorded” adds a separate entry of the source.
Tests used:
Type in all cases: biochemical
p105 [1] = target: T1, p105 (Homo sapiens, UniProt P19838); assay: Competition by synthetic KPC1-derived peptides of p105 ubiquitination by KPC1-Δ1-967 in reconstituted cell-free system; details: compared to 6 amino acids ILVRLW peptide
T1 sequence (P19838 1-968): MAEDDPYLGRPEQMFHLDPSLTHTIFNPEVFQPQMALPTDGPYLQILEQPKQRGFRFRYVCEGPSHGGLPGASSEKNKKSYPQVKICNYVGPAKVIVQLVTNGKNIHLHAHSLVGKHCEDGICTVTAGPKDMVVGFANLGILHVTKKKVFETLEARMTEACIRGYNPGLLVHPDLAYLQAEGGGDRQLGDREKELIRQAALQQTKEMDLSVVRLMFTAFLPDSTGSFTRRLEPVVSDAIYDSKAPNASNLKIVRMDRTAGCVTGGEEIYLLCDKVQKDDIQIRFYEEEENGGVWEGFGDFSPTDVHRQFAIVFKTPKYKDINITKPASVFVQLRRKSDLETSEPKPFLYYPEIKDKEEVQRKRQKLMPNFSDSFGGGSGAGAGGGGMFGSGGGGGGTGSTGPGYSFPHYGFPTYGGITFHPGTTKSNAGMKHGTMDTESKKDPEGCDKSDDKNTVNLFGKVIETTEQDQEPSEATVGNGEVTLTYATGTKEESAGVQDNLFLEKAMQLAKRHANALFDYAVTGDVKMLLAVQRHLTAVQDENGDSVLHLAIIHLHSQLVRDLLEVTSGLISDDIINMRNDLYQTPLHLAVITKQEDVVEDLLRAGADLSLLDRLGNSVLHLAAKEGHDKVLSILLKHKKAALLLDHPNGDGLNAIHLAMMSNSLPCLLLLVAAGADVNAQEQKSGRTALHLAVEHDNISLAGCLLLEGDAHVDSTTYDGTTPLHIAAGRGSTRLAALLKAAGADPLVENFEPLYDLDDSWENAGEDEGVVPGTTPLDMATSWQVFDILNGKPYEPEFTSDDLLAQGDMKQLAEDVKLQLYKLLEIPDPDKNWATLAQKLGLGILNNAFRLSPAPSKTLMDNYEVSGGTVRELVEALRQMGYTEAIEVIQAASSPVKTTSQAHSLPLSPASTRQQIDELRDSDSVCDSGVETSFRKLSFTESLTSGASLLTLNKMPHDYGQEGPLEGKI
Excerpt: Presented is the change (in %) of unconjugated p105 remained following addition of increasing concentrations of the peptides (compared to a system to which a peptide was not added; lane 3). Amid denotes N-terminal amidation and Ac denotes C-terminal acetylation.
Presented is the change (in %) of unconjugated p105 remained following addition of increasing concentrations of the peptides (compared to a system to which a peptide was not added; lane 2).
To further confirm that 7 amino acids WILVRLW of KPC1-Δ1-967 (SEQ ID. No. 5) are involved in the interaction with p105, an experiment was designed in which the binding of p105 to the ligase was competed with a synthetic peptides derived from KPC1.

p105 [2] = target: T1, p105; assay: Ubiquitination of p105 by purified KPC1 species in cell-free conjugation assay; details: reconstituted cell-free system, in vitro translated 35S-labeled p105, purified Ub, E1, E2, UbAl, ATP
Excerpt: FIGS. 4A and 4B represent western blots showing in vitro ubiquitination of p105 by mutated species of KPC1: FIG. 4A: In vitro translated and ^35S-labeled p105 was ubiquitinated by purified KPC1-Δ1-967-6xHIS (lanes 2-4) or KPC1-Δ1-974-6xHIS (lanes 5-7) in a reconstituted cell-free system. 4B) In vitro translated and ^355-labeled p105 was ubiquitinated by purified KPC1-Δ1-967-6xHIS (lanes 2,5,6), KPC1-Δ1-974-6xHIS (lane 3), KPC1-Δ967-1043-6xHIS (lane 4), WILVRLW-KPC1-Δ1-1039-6xHIS (lanes 7-8) or WILVRLW-KPC1-Δ1-1061-6xHIS (lanes 9-10) in a reconstituted cell-free system.
In order to assess if the interaction between two proteins leads to the conjugation of the substrate p105, ubiquitination reaction was performed in cell free system. The conjugation reaction was carried out in the presence of purified Ub, E1, E2, UbAl, ATP and KPC1—either wild-type or different mutant species. Samples were resolved via SDS-PAGE and the 35S-labeled p105 and its adducts were visualized using autoradiography. […] In addition, the shorter versions of KPC1 in which the 7 amino acids sequence were brought closer to RING domain, the active site of the enzyme were prepared. Both truncated KPC1 proteins that harbor the 7 amino acid sequence, WILVRLW-KPC1-Δ1-1039 (SEQ ID. No. 6) and WILVRLW-KPC1-Δ1-1061 (SEQ ID. No. 7), modified p105 (FIG. 4B, lanes 7-10).

p105 [3] = target: T1, p105; assay: Processing of p105 by purified proteasome in cell free system in presence of KPC1 deleted species; details: 35S-labeled p105 (FIG. 7)
Excerpt: In vitro translated and ^355-labeled p105 was processed by purified proteasome (lanes 2-7) in the presence of purified KPC1-Δ1-967-6xHIS (lanes 4-5) or KPC1-Δ1-974-6xHIS (lanes 6-7) as indicated. Lane 8 represents processing of p105 in the system that contained Fraction 2. Cell extract is fractionated over the anion-exchange resin diethylaminoethyl (DEAE)-cellulose, where ubiquitin is eluted in Fraction I, the unabsorbed, flow-through material that contains also certain E2 enzymes. Fraction II, the high salt eluate, contains E1, the remaining E2s, all the E3s, and the 26S proteasome, but not free ubiquitin. Processing is the amount of p50 produced in the reaction. All values relate to 100%, which is the set point for processing of p105 in a system that lacks proteasome and KPC1 (lane 1).

Molecule: WILVRLW [synthetic 7 amino acids peptide, positions 968-974 of KPC1]
- inhibition of ubiquitination of p105 by KPC1-Δ1-967 (p105 [1]; non-modified peptides (FIG. 6)): inhibited ubiquitination of p105 by KPC1-Δ1-967; also recorded: inhibits ubiquitination of p105
- inhibition of ubiquitination of p105 by KPC1-Δ1-967 (p105 [1]; peptides modified by N-terminal amidation and C-terminal acetylation (FIG. 5)): inhibited ubiquitination of p105 by KPC1-Δ1-967; also recorded: inhibits ubiquitination of p105

B1: WILVRLW-KPC1-Δ1-1061: truncated KPC1 with the 7 amino acid sequence brought closer to RING domain, SEQ ID NO: 7 (protein)
chain: WILVRLWFVDSRQLKVCATCFDLSVSLLRVLEMTITLVPEIFLDWTRPTSEMLLRRLAQLLNQVLNRVTAERNLFDRVVTLRLPGLESVDHYPILVAVTGILVQLLVRGPASEREQATSVLLADPCFQLRSICYLLGQPEPPAPGTALPAPDRKRFSLQSYADYISADELAQVEQMLAHLTSASAQAAAASLPTSEEDLCPICYAHPISAVFQPCGHKSCKACINQHLMNNKDCFFCKTTIVSVEDWEKGANTSTTSSAA
- ubiquitination of p105 (p105 [2]): modified p105

B2: KPC1-Δ1-967-6xHIS: purified 6xHIS KPC1 deleted species that has the sequence of WILVRLW (protein)
chain: WILVRLWRGCGFGYRYTRLPHLLKTKLEDANLPSLQKPCPSTLLQQHMADLLQQGPDVAPSFLNSVLNQLNWAFSEFIGMIQEIQQAAERLERNFVDSRQLKVCATCFDLSVSLLRVLEMTITLVPEIFLDWTRPTSEMLLRRLAQLLNQVLNRVTAERNLFDRVVTLRLPGLESVDHYPILVAVTGILVQLLVRGPASEREQATSVLLADPCFQLRSICYLLGQPEPPAPGTALPAPDRKRFSLQSYADYISADELAQVEQMLAHLTSASAQAAAASLPTSEEDLCPICYAHPISAVFQPCGHKSCKACINQHLMNNKDCFFCKTTIVSVEDWEKGANTSTTSSAA
modifications: left off: small tags and cut ends
- processing of p105 by purified proteasome (p105 [3]): stimulates the processing of p105 by purified proteasome

B3: KPC1-Δ1-974-6xHIS: purified 6xHIS KPC1 deleted species lacking the 7 amino acids responsible for binding to p105 (protein)
chain: RGCGFGYRYTRLPHLLKTKLEDANLPSLQKPCPSTLLQQHMADLLQQGPDVAPSFLNSVLNQLNWAFSEFIGMIQEIQQAAERLERNFVDSRQLKVCATCFDLSVSLLRVLEMTITLVPEIFLDWTRPTSEMLLRRLAQLLNQVLNRVTAERNLFDRVVTLRLPGLESVDHYPILVAVTGILVQLLVRGPASEREQATSVLLADPCFQLRSICYLLGQPEPPAPGTALPAPDRKRFSLQSYADYISADELAQVEQMLAHLTSASAQAAAASLPTSEEDLCPICYAHPISAVFQPCGHKSCKACINQHLMNNKDCFFCKTTIVSVEDWEKGANTSTTSSAA
modifications: left off: small tags and cut ends
- processing of p105 by purified proteasome (p105 [3]): could not stimulate processing
